Source: US20080267971A1 (published 2008)

T1: human Ang-2 V345M (human, UniProt O15123 19-496)
T1 sequence: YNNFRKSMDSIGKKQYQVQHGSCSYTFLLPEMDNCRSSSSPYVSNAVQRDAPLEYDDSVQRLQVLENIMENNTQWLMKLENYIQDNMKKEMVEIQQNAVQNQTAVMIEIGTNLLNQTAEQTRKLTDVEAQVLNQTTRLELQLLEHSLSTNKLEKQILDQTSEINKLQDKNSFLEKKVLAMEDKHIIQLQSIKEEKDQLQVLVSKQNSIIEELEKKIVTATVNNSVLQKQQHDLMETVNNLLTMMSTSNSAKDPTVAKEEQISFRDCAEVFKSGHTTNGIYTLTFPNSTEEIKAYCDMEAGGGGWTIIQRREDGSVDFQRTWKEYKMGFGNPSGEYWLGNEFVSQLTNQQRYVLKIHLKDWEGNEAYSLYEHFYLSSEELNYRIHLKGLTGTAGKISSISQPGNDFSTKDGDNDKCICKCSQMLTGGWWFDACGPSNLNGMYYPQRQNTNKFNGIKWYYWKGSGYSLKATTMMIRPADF

T2: Mouse/Human Ang-2 StuI chimeric molecule (mouse; human, UniProt O35608 19-496)
T2 construct: also called M/H Stul 310-496
T2 chain: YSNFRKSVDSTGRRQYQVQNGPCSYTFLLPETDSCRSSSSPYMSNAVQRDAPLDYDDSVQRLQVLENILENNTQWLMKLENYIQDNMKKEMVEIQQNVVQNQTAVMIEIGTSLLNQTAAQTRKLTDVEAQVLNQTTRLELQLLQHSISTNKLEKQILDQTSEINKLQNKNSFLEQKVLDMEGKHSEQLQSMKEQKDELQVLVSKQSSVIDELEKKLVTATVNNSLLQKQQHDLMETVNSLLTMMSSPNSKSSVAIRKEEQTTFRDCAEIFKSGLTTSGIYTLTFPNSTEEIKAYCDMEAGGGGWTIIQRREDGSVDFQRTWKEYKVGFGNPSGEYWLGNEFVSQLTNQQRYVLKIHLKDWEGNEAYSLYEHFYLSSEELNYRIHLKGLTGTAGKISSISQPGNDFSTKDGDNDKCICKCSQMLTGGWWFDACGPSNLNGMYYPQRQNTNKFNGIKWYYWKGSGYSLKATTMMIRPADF

T3: Mouse/Human chimeric Ang-2 with the human StuI-TfiI fragment (mouse/human chimera, UniProt O35608 19-496)
T3 construct: also called Stu-Tfil 310-400
T3 chain: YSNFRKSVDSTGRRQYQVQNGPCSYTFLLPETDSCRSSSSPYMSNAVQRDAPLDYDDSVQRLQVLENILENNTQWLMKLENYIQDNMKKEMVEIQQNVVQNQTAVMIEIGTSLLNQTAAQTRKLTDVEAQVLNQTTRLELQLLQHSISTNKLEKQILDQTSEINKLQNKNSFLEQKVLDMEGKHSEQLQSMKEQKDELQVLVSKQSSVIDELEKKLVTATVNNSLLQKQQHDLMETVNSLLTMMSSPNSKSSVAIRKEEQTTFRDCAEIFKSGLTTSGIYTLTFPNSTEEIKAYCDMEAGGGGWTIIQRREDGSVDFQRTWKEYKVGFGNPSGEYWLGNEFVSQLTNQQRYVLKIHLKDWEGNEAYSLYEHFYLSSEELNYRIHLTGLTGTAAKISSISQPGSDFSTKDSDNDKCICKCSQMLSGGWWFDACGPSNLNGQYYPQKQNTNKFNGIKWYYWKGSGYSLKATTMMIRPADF

T4: Human Ang-1/2 BsmI chimeric molecule (human)
T4 chain: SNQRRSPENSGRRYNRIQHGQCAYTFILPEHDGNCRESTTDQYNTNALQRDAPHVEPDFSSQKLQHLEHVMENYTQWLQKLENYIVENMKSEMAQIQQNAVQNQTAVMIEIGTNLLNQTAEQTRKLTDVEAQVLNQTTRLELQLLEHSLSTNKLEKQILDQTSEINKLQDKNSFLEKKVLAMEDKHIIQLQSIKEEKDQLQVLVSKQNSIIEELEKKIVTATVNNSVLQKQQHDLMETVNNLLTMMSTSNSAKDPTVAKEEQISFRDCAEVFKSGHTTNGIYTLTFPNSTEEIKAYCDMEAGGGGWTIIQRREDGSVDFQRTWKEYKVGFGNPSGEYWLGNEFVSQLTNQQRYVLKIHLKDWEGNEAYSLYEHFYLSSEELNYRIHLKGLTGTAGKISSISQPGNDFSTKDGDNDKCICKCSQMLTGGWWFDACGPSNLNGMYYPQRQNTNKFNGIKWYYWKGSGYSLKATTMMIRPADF

T5: human Ang-2443 (human, UniProt O15123 19-496)
T5 construct: Splice variant missing amino acids 96-148; supernatant of transfected 293F cells
T5 sequence: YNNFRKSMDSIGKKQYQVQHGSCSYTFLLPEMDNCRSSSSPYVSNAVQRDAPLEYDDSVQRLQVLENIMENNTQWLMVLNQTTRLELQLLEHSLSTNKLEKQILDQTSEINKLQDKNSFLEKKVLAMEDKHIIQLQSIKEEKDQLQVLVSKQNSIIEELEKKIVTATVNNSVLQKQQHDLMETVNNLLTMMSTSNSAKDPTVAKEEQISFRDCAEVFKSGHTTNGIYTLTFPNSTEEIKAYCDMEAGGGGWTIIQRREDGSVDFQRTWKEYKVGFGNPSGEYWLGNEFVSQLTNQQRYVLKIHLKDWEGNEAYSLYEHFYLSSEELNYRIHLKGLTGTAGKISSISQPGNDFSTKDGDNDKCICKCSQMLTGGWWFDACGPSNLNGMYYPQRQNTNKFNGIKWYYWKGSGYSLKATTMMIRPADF


Columns and labels:
Assay in all cases: ELISA
human Ang-2 V345M = biological target: T1, human Ang-2 V345M
[1] = biological target: T2, Mouse/Human Ang-2 StuI chimeric molecule
[2] = biological target: T3, Mouse/Human chimeric Ang-2 with the …
[3] = biological target: T4, Human Ang-1/2 BsmI chimeric molecule
human Ang-2443 = biological target: T5, human Ang-2443

Binder	% of binding to human Ang-2 (human Ang-2 V345M) [%]	% of binding to human Ang-2 [1] [%]	% of binding to human Ang-2 [2] [%]	% of binding to human Ang-2 [3] [%]	% of binding to human Ang-2 (human Ang-2443) [%]
mAb 5.28.1 (antibody, V domains shown, Human hybridoma IgG (XenoMouse); also called x5.28) VH: EVQLVESGGIVVQPGGSLRLSCAASGFTFDDYTMHWVRQTPGKGLEWVSLISWDGGSTYYADSVKGRFTISRDNSKNSLYLQMNSLRTEDTALYYCAKDIDIAVAGTGFDHWGQGTLVTVSS VL: EIVMTQSPATLSVSPGERATLSCRASQSVTSNLAWYQQKPGQAPRLLIYGALIRATGIPARFSGSGSGTEFTLTISSLQSEDFAVYYCQQYNNWPFTFGPGTKVDIKR	100	100	100	100	100
mAb 5.56.1 (antibody, V domains shown, Human hybridoma IgG (XenoMouse); also called x5.56) VH: QVQLVESGGGVVQPGRSLRLSCAASGFTFSSYGMHWVRQAPGKGLEWVAVIWYDGSNKYYADSVKGRFTISRDNSKNTLYLQMNSLRAEDTAVYYCAREDNWNFYFDYWGQGTLVTVSS VL: DIQMTQSPSSLSASVGDRVTITCRASQGISYYLAWYQQKPGKVPKLLIYAASTLQSGVPSRFSGSGSGTDFTLTISSLQPEDVATYYCQKYNSAPFTFGPGTKVDIKR	100	100	100	100	100
mAb 5.108.1 (antibody, V domains shown, Human hybridoma IgG (XenoMouse); also called x5.108) VH: QVQLVESGGGVVQPGRSLRLSCAASGFTFSSYGMHWVRQAPGKGLEWVAVIWYDGSNKYYADSVKGRFTISRDNSKNTLYLQMNSLRAEDTAMYYCARELALWGQGTLVTVSS VL: EIVMTQSPATLSVSPGERATLSCRASQSVSSYLAWYQQKPGQAPRLLIYGAFTRATGIPARFRGSGSGPEFTLTISSLQSEDFAVYYCQQYSHWWTFGQGTKVEIKR	100	100	36	100	100
mAb 5.39.1 (antibody, V domains shown, Human hybridoma IgG (XenoMouse); also called x5.39) VH: QVQLVQSGAEVTKPGASVKVSCKASGYTFTAYHMYWVRQAPGQGLEWMGWINPNSGGTNYAQKFQGRVTMTRDTSISTAYMELSRLRSDDSPVYYCARDQGIAAAGPFDYWGQGTLVTVSS VL: EIVMTQSPATLSVSPGDRATLSCRASQSVSSNFAWYQQKPGQAPRLLIYGSSTRATGIPARFSGSGSGTEFTLTISSLQSEDFAVYYCQQYHYWWTFGQGTKVEFKR	100	100	25	100	100

Further lines, results first:

% of binding to human Ang-2 (human Ang-2 V345M) [%]	% of binding to human Ang-2 [1] [%]	% of binding to human Ang-2 [2] [%]	% of binding to human Ang-2 [3] [%]	% of binding to human Ang-2 (human Ang-2443) [%]	Binder
100	100	100	100	100	mAb 5.35.1 (antibody, V domains shown, Human hybridoma IgG (XenoMouse); also called x5.35) VH: EVQLVESGGGVVRPGGSLRLSCTTSGFTFDDYGMSWVRQAPGKGLEWVSGINWNGGSTVYADSVKGRFTISRDSAKNSLYLQMNSLRAEDTALYHCARNKQWLWYFDLWGRGTLVTVSS VL: EIVMTQSPATLSVSPGERATLSCRASQSVSSNLAWYQQKPGQAPRLLIYGASTRATGIPARFSGSGSGTEFTLTISSLQSEDFAVYYCEQYNNWPLTFGGGTKVEIKR
100	100	100	100	100	mAb 5.52.1 (antibody, V domains shown, Human hybridoma IgG (XenoMouse); the line 5.52 has entries of its own (347, 349; light chain L2) that differ from the clone 5.52.1 (L5); also called x5.52) VH: QVQLVESGGGVVQPGRSLRLSCAASGFTFSSYGMHWVRQAPGKGLEWVAVRWYDESNKYYADSVKGRFTISRDNSKNTLYLQMNSLRAEDTAVYYCARDPFETGTTFDYWGQGTLVTVSS VL: DIQMTQSPSSVSASVGDRVTITCRASQGISSWLAWYQQKPGKAPKLLIYAVSSLESGVPSRFSGSGSGTDFTLTISSLQPEDFATYYCQQALTFGGGTKVEIKR
100	100	65	100	100	mAb 5.40.2 (antibody, V domains shown, Human hybridoma IgG (XenoMouse); also called x5.40) VH: not shown VL: EIVMTQSPATLSVSPGERATLSCRASQSVSSNLVWYQQKPGQAPRLLIYDSSTRATGIPVRFSGSGSGTEFTLTISSLQSEDFAVYYCQQYNHWWTFGQGTKVEIKR
